Changes are numbered by the printed parent chain. In names and notes the source's numbering stands.
T1: GFP–Rad55–Rad57 complex (His6–GFP–Rad55 and FLAG–Rad57) (S. cerevisiae, UniProt P38953 1-406; P25301 1-460)
T1 sequence (looked up) 1: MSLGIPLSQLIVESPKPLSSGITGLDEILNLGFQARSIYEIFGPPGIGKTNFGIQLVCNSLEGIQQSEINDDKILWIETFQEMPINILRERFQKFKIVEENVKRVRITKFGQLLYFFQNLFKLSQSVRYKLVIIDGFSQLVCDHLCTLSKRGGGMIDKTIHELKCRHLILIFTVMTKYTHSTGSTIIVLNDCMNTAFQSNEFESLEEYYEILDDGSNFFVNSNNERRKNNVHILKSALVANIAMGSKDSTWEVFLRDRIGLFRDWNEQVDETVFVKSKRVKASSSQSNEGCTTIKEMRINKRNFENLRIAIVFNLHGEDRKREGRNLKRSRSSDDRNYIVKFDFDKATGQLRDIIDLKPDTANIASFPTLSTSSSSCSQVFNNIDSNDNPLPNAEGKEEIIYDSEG
T1 sequence (looked up) 2: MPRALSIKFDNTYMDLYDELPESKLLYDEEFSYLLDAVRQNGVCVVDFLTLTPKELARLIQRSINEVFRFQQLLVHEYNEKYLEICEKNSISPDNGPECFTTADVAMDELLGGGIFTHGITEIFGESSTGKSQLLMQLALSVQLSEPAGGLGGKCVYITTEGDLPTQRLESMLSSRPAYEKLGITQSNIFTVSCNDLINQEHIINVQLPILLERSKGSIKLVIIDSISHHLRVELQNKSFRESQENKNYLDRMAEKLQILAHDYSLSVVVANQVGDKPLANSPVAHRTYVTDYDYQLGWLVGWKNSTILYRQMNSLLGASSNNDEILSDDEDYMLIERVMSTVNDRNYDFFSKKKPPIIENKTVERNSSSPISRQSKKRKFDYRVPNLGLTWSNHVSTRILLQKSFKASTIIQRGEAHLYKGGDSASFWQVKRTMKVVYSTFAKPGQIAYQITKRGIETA

B1: Rad51 (natural protein, S. cerevisiae, UniProt P25454 1-400, looked up)
chain: MSQVQEQHISESQLQYGNGSLMSTVPADLSQSVVDGNGNGSSEDIEATNGSGDGGGLQEQAEAQGEMEDEAYDEAALGSFVPIEKLQVNGITMADVKKLRESGLHTAEAVAYAPRKDLLEIKGISEAKADKLLNEAARLVPMGFVTAADFHMRRSELICLTTGSKNLDTLLGGGVETGSITELFGEFRTGKSQLCHTLAVTCQIPLDIGGGEGKCLYIDTEGTFRPVRLVSIAQRFGLDPDDALNNVAYARAYNADHQLRLLDAAAQMMSESRFSLIVVDSVMALYRTDFSGRGELSARQMHLAKFMRALQRLADQFGVAVVVTNQVVAQVDGGMAFNPDPKKPIGGNIMAHSSTTRLGFKKGKGCQRLCKVVDSPCLPEAECVFAIYEDGVGDPREEDE
B2: Rad51–K191R (natural protein, S. cerevisiae, UniProt P25454 1-400, looked up)
chain: B1 chain with K191R
B3: GST–Hed1–6xHis–GFP (natural protein, S. cerevisiae, UniProt Q03937 1-162, looked up)
chain: MQQRSNRRSCSYIPLGVHNNAEKSLCTEVAPARKNKRSITTSPIVNINVVERRLFNLELEKQQLRAKNLSENTGGGSPNGGAYLDAKKGVREQDQYQGGPSKELDRLQPPPSMKKSPPRKKKSLKDLIYETNKTFYQVDSNKVKYKVGLSKKQLLPSKTVDN

Legend:
[1] = target: T1, GFP–Rad55–Rad57 complex (His6–GFP–Rad55 …); experiment: single-molecule ssDNA curtain assay
Rad51 = target: B1; experiment: single-molecule ssDNA curtain assay

| Binder | koff [1] [s⁻¹] | binding result (Rad51) |
| --- | --- | --- |
| B1 | 0.00758 | – |
| B2 | 0.0058 | – |
| B3 | – | binds |
